Several values for one entry are separate records, joined by “and”; a condition that tells them apart may be missing. Identical values can stand only once.
Molecular target: recombinant human gC1qR/HABP1/p32 (mature, amino acids 74-282) (human) (UniProt Q07021)
Assay: SEC; gel permeation chromatography of purified recombinant gC1qR/HABP1 on a Superdex 200 HR10/30 column, against molecular weight standards

recombinant human gC1qR/HABP1/p32 (mature, amino acids 74-282) (from UniProt Q07021 74-282) (natural protein; other documents disagree on this pair)
stoichiometry N: 3 and 2
